# Results: publication PMC8865373 (Biochemistry, 2021)
# Where no end group is shown, it is not given here. [ ]: non-standard residue; d: D form. pS = N[C@@H](COP(=O)(O)O)C(=O)O
# B1: E7(1–51) C24A/A50C labeled with Alexa fluor 594, unphosphorylated (domain or fragment)
# chain: MHGDTPTLHEYMLDLQPETTDLYAYEQLNDSSEEEDEIDGPAGQAEPDRC(Alexa Fluor 594)H
# B2: ppE7(1–51)(L15V) (domain or fragment)
# chain: MHGDTPTLHEYMLDVQPETTDLYCYEQLND[pS][pS]EEEDEIDGPAGQAEPDRAH
# B3: doubly-phosphorylated HPV16 ppE7(1–51) (domain or fragment)
# chain: MHGDTPTLHEYMLDLQPETTDLYCYEQLND[pS][pS]EEEDEIDGPAGQAEPDRAH
# B4: HPV16 E7(1–51), unphosphorylated (domain or fragment)
# chain: MHGDTPTLHEYMLDLQPETTDLYCYEQLNDSSEEEDEIDGPAGQAEPDRAH
# How the values were obtained:
# [1] = biological target: T1, TAZ2 domain (residues 1764–1855) of wild-type mouse CBP (mouse, UniProt P45481 1764-1855); assay: fluorescence polarisation
# T1 sequence (looked up): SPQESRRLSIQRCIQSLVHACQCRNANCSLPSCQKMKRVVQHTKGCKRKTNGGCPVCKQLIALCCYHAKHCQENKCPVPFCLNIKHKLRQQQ
# [2] = biological target: T1, TAZ2 domain (residues 1764–1855) of …; assay: NMR titration
# [3] = biological target: T1, TAZ2 domain (residues 1764–1855) of …; assay: NMR titration; remark: listed apart in the source
# [4] = biological target: T1, TAZ2 domain (residues 1764–1855) of …; assay: fluorescence polarisation; remark: listed apart in the source
Binder,binding result [2],Kd [4] [µM],further results
B1,,,Kd [1]: 0.079 µM
B2,binds,,
MHGDTPTLHEYMLDLQPE-NH2 [E7 CR1 peptide (residues 1–18)],,31 ± 2,Kd [3]: 69 µM
"PETTDLYCYEQLNDSSEEEDEIDGPAGQAEPDRAH (domain or fragment) [HPV16 E7(17–51), unphosphorylated]",,1.8 ± 0.1,
B3,binds,,
ETTDLYCYEQLNDSSEEEDE [E7 CR2 peptide (residues 18–37)],,4.6 ± 0.2,Kd [3]: 3.4 µM
PETTDLYCYEQLND[pS][pS]EEEDEIDGPAGQAEPDRAH (domain or fragment) [doubly-phosphorylated HPV16 ppE7(17–51)],binds,,
B4,,0.1 ± 0.01,
